In the supplement of paper PMC7877785:
± gives the uncertainty stated by the source.

Assay: self-splicing fitness, log relative to wild type (ln ratio); higher = more splicing; Tetrahymena group I intron in knt gene, E. coli kanamycin selection, DiMSum; sequences stand for … in CUCUCU…GGAGGGAAAAGUUAUCAGGCAUGCACCUGGUAGCUAGUCUUUAAACCAAUAGAUUGCAUCGGUUUAAAAGGCAAGACCGUCAAAUUGCGGGAAAGGGGUCAACAGCCGUUCAGUACCAAGUCUCAGGGGAAACUUUGAGAUGGCCUUGCAAAGGGUAUGGUAAUAAGCUGACGGACAUGGUCCUAACCACGCAGCCAAGUCCUAAGUCAACAGAUCUUCUGUUGAUAUGGAUGCAGUUCACAGACUAAAUGUCGGUCGGGGAAGAUGUAUUCUUCUCAUAAGAUAUAGUCGGACCUCUCCUUAAUGGGAGCUAGCGGAUGAAGUGAUGCAACACUGGAGCCGCUGGGAACUAAUUUGUAUGCGAAAGUAUAUUGAUUAGUUUUGGAGUACUCGUGGUCG
In short: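 DiMSum derived fitness as the error-weighted combination of fold changes across replicates, kanamycin versus no kanamycin, normalised to wild type. E. coli BL21(DE3) held the library, which randomised all eight P1ex-region intron nucleotides within the knt kanamycin-resistance gene on pET-22b(+). Six replicate transformations grew overnight at 37°C or 30°C on LB agar with or without 25 μg/mL kanamycin, also containing 100 μg/mL carbenicillin, 50 μM IPTG and 0.2% rhamnose, and pooled colonies were amplicon-sequenced on an Illumina HiSeq 2500.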

| Sequence | self-splicing fitness (ln) (30 °C) | self-splicing fitness (ln) (37 °C) |
| --- | --- | --- |
| AGAAAGCAAUAUUACGCGCC | -0.784 ± 0.11 | 0.139 ± 0.14 |
| CGACAGCAAUAUUACGAAUG | -1.1 ± 0.079 | -0.112 ± 0.1 |
| GCGAAGCAAUAUUACGACAC | -0.709 ± 0.21 | 0.892 ± 0.34 |
| UAACAGCAAUAUUACGAUUA | -0.131 ± 0.047 | -0.103 ± 0.058 |
| CUCGAGCAAUAUUACGAGUC | -3.52 ± 0.32 | -2.53 ± 0.2 |
| ACCGAGCAAUAUUACGCCCG | -2.05 ± 0.29 | -1.28 ± 0.33 |
| CGAUAGCAAUAUUACGCUAU | -2.82 ± 0.19 |  |
| GCACAGCAAUAUUACGUACU | -1.2 ± 0.069 | -1.2 ± 0.094 |
| AAGCAGCAAUAUUACGGCCC | 0.22 ± 0.14 | 0.271 ± 0.17 |
| CACCAGCAAUAUUACGCUCA | -1.42 ± 0.12 | -1.13 ± 0.17 |
| GUAAAGCAAUAUUACGAGUG | -1.69 ± 0.059 | -0.403 ± 0.08 |
| GUAGAGCAAUAUUACGCAGU | -1.39 ± 0.11 | -1.45 ± 0.17 |
| AUGUAGCAAUAUUACGACGA | -0.828 ± 0.11 | 0.039 ± 0.14 |
| UCACAGCAAUAUUACGGUCG | -0.0254 ± 0.054 | 0.119 ± 0.061 |
| GGCAAGCAAUAUUACGUCGA | -0.765 ± 0.13 | -0.561 ± 0.13 |
| AUGCAGCAAUAUUACGAUCA | -0.908 ± 0.14 | -0.711 ± 0.14 |
| CAGAAGCAAUAUUACGGUGA | -2.21 ± 0.096 | -1.13 ± 0.1 |
| UACAAGCAAUAUUACGGGUA | -1.13 ± 0.072 | -0.839 ± 0.077 |
| GCGAAGCAAUAUUACGACUA | 0.115 ± 0.22 | -1.94 ± 0.2 |
| UCUGAGCAAUAUUACGGCUC | -2.63 ± 0.22 | -2.14 ± 0.24 |
| CUGGAGCAAUAUUACGGUGA | -2.75 ± 0.24 | -3.22 ± 0.35 |
| UGAAAGCAAUAUUACGCCAG | -0.985 ± 0.12 | -0.807 ± 0.12 |

| Sequence | self-splicing fitness (ln) (30 °C) | self-splicing fitness (ln) (37 °C) |
| --- | --- | --- |
| UAUCAGCAAUAUUACGAACC | -1.66 ± 0.24 | -0.148 ± 0.38 |
| GGUUAGCAAUAUUACGCCGA | -1.52 ± 0.25 | -0.734 ± 0.23 |
| CCCUAGCAAUAUUACGUAUG | -3.75 ± 0.2 | -3.63 ± 0.3 |
| AUCAAGCAAUAUUACGCUCC | -0.122 ± 0.16 | -1.04 ± 0.17 |
| ACCCAGCAAUAUUACGAAGU | -0.678 ± 0.058 | 0.183 ± 0.074 |
| GUAUAGCAAUAUUACGUUCG | -2.09 ± 0.21 | -1.53 ± 0.19 |
| CCUUAGCAAUAUUACGCAUU | -4.02 ± 0.46 |  |
| CCGGAGCAAUAUUACGAACA | -2.82 ± 0.41 | -2.9 ± 0.32 |
| GGGAAGCAAUAUUACGGCAU | -0.534 ± 0.16 | -0.344 ± 0.19 |
| AAAGAGCAAUAUUACGCUCG | -2.17 ± 0.12 | -0.963 ± 0.12 |
| GAUCAGCAAUAUUACGUCUU | 0.24 ± 0.076 | 0.0656 ± 0.085 |
| GACGAGCAAUAUUACGUAUC |  | -2.42 ± 0.35 |
| GGCCAGCAAUAUUACGUUGC | -1.58 ± 0.071 | -0.74 ± 0.081 |
| CUGGAGCAAUAUUACGCCGC |  | -1.1 ± 0.38 |
| UGGCAGCAAUAUUACGUCUU | -0.0989 ± 0.044 | 0.494 ± 0.059 |
| CGCCAGCAAUAUUACGGUAG | -2.51 ± 0.11 | -2.03 ± 0.18 |
| UCUGAGCAAUAUUACGGUUA | -2.82 ± 0.18 | -2.05 ± 0.14 |
| UCCAAGCAAUAUUACGUGGA | -2.9 ± 0.17 | -3.47 ± 0.29 |
| CUUCAGCAAUAUUACGAACC | -1.67 ± 0.41 | -1.18 ± 0.35 |
| AGCAAGCAAUAUUACGGAAC | -3.49 ± 0.43 | -2.04 ± 0.18 |
| CCCUAGCAAUAUUACGGGUC | -3.26 ± 0.14 | -2.65 ± 0.2 |
